Results reported in PMC8517440, “Structural and Catalytic Characterization of TsBGL, a β-Glucosidase From Thermofilum sp. ex4484_79” (Frontiers in Microbiology, 2021).

Assays:
purified protein [1] = substrate: O=[N+]([O-])c1ccc(O[C@@H]2O[C@H](CO)[C@@H](O)[C@H](O)[C@H]2O)cc1; test: purified protein; assay type: biochemical, Thermofilum sp. ex4484_79; conditions: pH 5.0, 90°C, 0.1-6.0 mM substrate, kcat printed 135.1 in Table 2
purified protein [2] = substrate: O=[N+]([O-])c1ccc(O[C@@H]2O[C@H](CO)[C@H](O)[C@H](O)[C@H]2O)cc1; test: purified protein; assay type: biochemical, Thermofilum sp. ex4484_79; conditions: pH 5.0, 90°C, table header prints mm^-1, text prints 1.05 mm

B1: TsBGL (Thermofilum sp. ex4484_79) (protein)
chain: MPFPEKFFWGASSSGFQFEMGDPEGKSIDPNTDWFKWVHDETNIRRGVVSGDLPEHGINYWDLFRSDHELAASIGMNAYRIGIEWSRIFPKPTLDVRVGIELDPEGYITRVEVDDKAIEELDLLANKEAVSRYREIILDLRDRGLKVFVCLNHFTLPLWIHDPIACRDTKLKRGPKGWVDKTTILEFAKYSAYMAWSLGNIVDYWVTFNEPMVVTEAGYFQPEVGFPPGLRNISAFKTACLNIANAHVVAYDLIKKYDKVRADDDSPSAAYVGIVHNIVPIKPYSERKLDLKAADLMNYIHNKWILEFIVRGKIDRSLVGREKYLIDKFKDKLDWLGVNYYTRIVLKGKWVPPLISPVPVIPDIVKGYGFNCTPGGRSLDGMPVSDFGWEVYPQGLSDALDIASEYGKPLIVTENGIADSEDNIRPYFLVSHLKVLEEYVEKKKNVYGYLHWALTDNYEWAQGFKMRFGLTDVDLETKERKPRESSEVFKIIASEKTVPEELVEKYPKPIF
notes: synthetic gene in E. coli BL21(DE3) pLysS; N-terminal His6-SUMO tag cut with Ulp1; check)
With B1 the Km (purified protein [1]) was 617 µM, the kcat (purified protein [1]) was 136.05 s⁻¹ and the Km (purified protein [2]) was 1054 µM. It also gave a kcat (purified protein [2]) of 124 s⁻¹ and a kcat/Km (purified protein [2]) of 118000 M⁻¹ s⁻¹.
